These results are taken from paper PMC10562830 (Science translational medicine, 2023).

In assay [1] the target is Chikungunya virus-like particles of the 37997 strain (Chikungunya virus, strain 37997, strain). The experiment in a line: cryo-EM structure.
Assay [2] addresses recombinant p62-E1 protein derived from the CHIKV-LR 2006 strain (Chikungunya virus, LR 2006 …, UniProt Q1H8W5, strain). The experiment in a line: ELISA.

B1: 506.A08 Fab (Fab, V domains shown)
VH: EEQLVESGGGLVQPGGSLRLSCAASGFTFSSYSMNWVRQAPGKGLEWVSYISSSSSTIHYADSVKGRFTISRDNAKNSLYLQMNSLRAEDTAVYYCAREGNSGYEPLDYWGQGTLVTVS
VL: not shown
On to B1, for which the binding result in assay [1] is “binds”.

B2: 506.A08 (antibody, V domains shown)
VH: EEQLVESGGGLVQPGGSLRLSCAASGFTFSSYSMNWVRQAPGKGLEWVSYISSSSSTIHYADSVKGRFTISRDNAKNSLYLQMNSLRAEDTAVYYCAREGNSGYEPLDYWGQGTLVTVS
VL: not shown
Turning to B2, in assay [2], the binding result is listed as “binds”.

B3: 506.C01 Fab (Fab, V domains shown)
VH: QVQLQESGPGLVKPSQTLSLTCTVSGGSISSDDYYWTWIRLPPGKGLEWIGYIFYTGGTYYNPSLKSRVTISLDRSKNQFSLKLSSVTAADTAVYFCARAPETYCSTTNCYKGYFDSWGQGTLVTVSS
VL: DIQMTQSPSSVSASVGDRVTITCRASQGISSWLGWYQQKPGKAPKLLIYAASSLQSGVPSRFSGSGSGTDFTLTISSLQPEDFATYYCQQANSFPRTFGQGTKVEIK
Regarding B3, the binding result in assay [1] is on record as “binds”.

B4: 506.C01 (antibody, V domains shown)
VH: QVQLQESGPGLVKPSQTLSLTCTVSGGSISSDDYYWTWIRLPPGKGLEWIGYIFYTGGTYYNPSLKSRVTISLDRSKNQFSLKLSSVTAADTAVYFCARAPETYCSTTNCYKGYFDSWGQGTLVTVSS
VL: DIQMTQSPSSVSASVGDRVTITCRASQGISSWLGWYQQKPGKAPKLLIYAASSLQSGVPSRFSGSGSGTDFTLTISSLQPEDFATYYCQQANSFPRTFGQGTKVEIK
In the case of B4, in assay [2], the binding result was “binds”.
